The values that follow come from patent publication US20220119446A1, “BIOMARKERS AND TREATMENT OF NEURONAL INJURY AND NEURODEGENERATION” (Board of Supervisons of Louisiana State University and …, priority 2018, published 2022).

In this assay the test system is β-catenin. Description: TOP Flash/FOP flash luciferase reporter in hpRPE cells. The note with it: hpRPE cells undergoing UOS+/−NPD1. The class given is cell-based, human. The text has this: We tested whether or not Wnt5a activates […] using TOP Flash/FOP flash reporter system in hpRPE cells undergoing UOS+/−NPD1 (FIG. 1g).
Except TOP/FOP flash, the Luciferase activity can be standardized using a construct expressing GFP constitutively under CMV virus promoter. To assess luciferase activity, cell lysates can be obtained using Passive Lysis Buffer (Promega, Madison, Wis.) and mixed with a luciferase assay reagent (Promegam Madison, Wis.). Chemiluminescence produced by luciferase and fluorescence from GFP can be detected using Appliscan 2.3. Data can be analyzed using SkanIt 2.3 (Thermo Fisher Scientific, Waltham, Mass.).
Except TOP/FOP flash, the Luciferase activity was standardized using a construct expressing GFP constitutively under CMV virus promoter. To assess luciferase activity, cell lysates were obtained using Passive Lysis Buffer (Promega) and mixed with a luciferase assay reagent (Promega). Chemiluminescence produced by luciferase and fluorescence from GFP was detected using Appliscan 2.3. Data were analyzed using SkanIt 2.3 (Thermo Fisher Scientific).

B1: Wnt3a: recombinant protein, R&D systems 5036-WN; canonical Wnt ligand (protein, UniProt P56704 19-352, looked up)
Protein Wnt-3a: SYPIWWSLAVGPQYSSLGSQPILCASIPGLVPKQLRFCRNYVEIMPSVAEGIKIGIQECQHQFRGRRWNCTTVHDSLAIFGPVLDKATRESAFVHAIASAGVAFAVTRSCAEGTAAICGCSSRHQGSPGKGWKWGGCSEDIEFGGMVSREFADARENRPDARSAMNRHNNEAGRQAIASHMHLKCKCHGLSGSCEVKTCWWSQPDFRAIGDFLKDKYDSASEMVVEKHRESRGWVETLRPRYTYFKVPTERDLVYYEASPNFCEPNPETGSFGTRDRTCNVSSHGIDGCDLLCCGRGHNARAERRREKCRCVFHWCCYVSCQECTRVYDVHTCK
With B1, the “β-catenin activity (luciferase)” value was “rose almost twice”.
